Here are results for 1 molecule from article PMC9468636, “ZAT10 plays dual roles in cadmium uptake and detoxification in Arabidopsis”.

This data set concerns the target MBP-ZAT10 (Arabidopsis thaliana, UniProt Q96289 1-227). The experiment in a line: EMSA; 2 ug protein in 20 uL; EMSA/gel-shift binding 5x buffer (Beyotime; composition not stated), 20 uL, 25 C, 30 min, 12% native PAGE; protein eluted in 20 mM Tris-HCl, 100 mM NaCl, 10 mM. As to conditions: protein: recombinant; tags: N-terminal MBP (pMAL-c4X); blunt. (In general: Mobility shift assays separate free from complexed probe on a gel.)

Chain of MBP-ZAT10 (Q96289 whole entry): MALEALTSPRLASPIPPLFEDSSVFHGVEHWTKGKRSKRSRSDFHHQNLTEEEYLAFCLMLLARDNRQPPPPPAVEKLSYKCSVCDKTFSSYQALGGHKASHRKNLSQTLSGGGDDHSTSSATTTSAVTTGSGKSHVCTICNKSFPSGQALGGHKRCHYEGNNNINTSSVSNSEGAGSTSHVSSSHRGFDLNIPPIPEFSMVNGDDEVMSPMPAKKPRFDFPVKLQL

B1: ZAT10 promoter probe (P) (dsDNA)
DNA 1: ATCGCCACCTTCACTCTTCACACTTTCCTACCACTTGTCACGCAACTT
DNA 2: AAGTTGCGTGACAAGTGGTAGGAAAGTGTGAAGAGTGAAGGTGGCGAT
B1: the binding result is on record as “binds”.
